B1: HDV Ribozyme (parent)
chain: GGCCGGCAUGGUCCCAGCCUCCUCGCUGGCGCCGGCUGGGCAACAUUCCGAGGGGACCGUCCCCUCGGUAAUGGCGAAUGGGACCCA

Variants of: B1
Assay: self-cleavage, relative activity (ratio to wild type); higher = more cleavage; co-transcriptional

Variant	self-cleavage
GGCCGGCAUGGUCCCAGCCUCCUCGCUGGCGCCGGCGGGGCAACAUUCCGAGGGGACCGGCCCCUCGGUAAUGGCGAAUGGGACCCA [U37G U60G]	0.0831
GGCCGGCAUUGUCCCAGCCUCCUCGCUGGCGCCGGCUGGGCAACAUUCCGAGGGGACCGUCCCCUCGGUAAUGGAGAAUGGGACCCA [G10U C75A]	0.0213
GGCCGGCAUGGUCCCAGCCUCCUCGCUGGCGCCGGCUGGGCAACAUUCCGAGGGGACAGUCCCCUCGGUAAUGGCGAAUGGGACACA [C58A C85A]	0.877
GGCCGGCAUGGUCCCAGCCGCCUCGCUGGCGCCGGCUGGGCAACAUUCCGAGGGGAUCGUCCCCUCGGUAAUGGCGAAUGGGACCCA [U20G C57U]	0.302
UGCCGGCAUGGUCCCAGCCUCCUCGCUGGCGCCGGCUGGGCAACAUUCCGAGGGGACCGUCCUCUCGGUAAUGGCGAAUGGGACCCA [G1U C63U]	0.535
GGCCGGCAUGGUCCCAGCCUCCUCGCUGGCGCCGGCUGGGUAACAUUCCGAGGGGACCGUCCCCUCGGUAAUGGCGAAUGGGACCAA [C41U C86A]	1.04
GGCCAGCAUGGUCCCAGCCUCCUCGCUGGCGCCGGCUGGGCAACAUUCCGAGGCGACCGUCCCCUCGGUAAUGGCGAAUGGGACCCA [G5A G54C]	0.225
GGCCGGCAUGGUCCCAGCCUCCUCGCUGGCGCCGGCUGGGCAACAUUCCGAGGGGACUGUCCCCUCGGUAUUGGCGAAUGGGACCCA [C58U A71U]	1.16
GGCCGGCAUGGUCCCAGCCUCCUCGCUGGCGCCGACUGGGCAACAUUCCGAGGGGACCGUCCCCUCGGUAAUGGCGAGUGGGACCCA [G35A A78G]	0.138
GUCCGGCGUGGUCCCAGCCUCCUCGCUGGCGCCGGCUGGGCAACAUUCCGAGGGGACCGUCCCCUCGGUAAUGGCGAAUGGGACCCA [G2U A8G]	0.0272
GGCCGGCAUGGUCCCAGCCUGCUCGCUGGCGCCGGCUGGGCAACAUUACGAGGGGACCGUCCCCUCGGUAAUGGCGAAUGGGACCCA [C21G C48A]	0
GGCCGGCAUGGUCCCAGCCUCCUCGCGGGCGCCGGCUGGGCAACAUUCCGAGGGGACGGUCCCCUCGGUAAUGGCGAAUGGGACCCA [U27G C58G]	0.95
GGCCCGCAUGGUCCCAGCCUCCUCGCUGGCGCCAGCUGGGCAACAUUCCGAGGGGACCGUCCCCUCGGUAAUGGCGAAUGGGACCCA [G5C G34A]	0.0692
GGCCGGCAUGGUCCCAGCCUCCUCGCUGGCGCCGGCUGGUCAACAUUGCGAGGGGACCGUCCCCUCGGUAAUGGCGAAUGGGACCCA [G40U C48G]	0.665
GGCCGGCAUGGUCCCAGCCUCUUCGCUGGCGCCGGCUGGGCAACAUUCCGAGGGGACCGUCCCCUCGGUAAUGGCGAUUGGGACCCA [C22U A78U]	0.197
GGCCGGCAUGGUCCCAGCCUCCUCGCUGGCGCCGGCUGGGCAACAUUCCGAGGAGACCGUCCGCUCGGUAAUGGCGAAUGGGACCCA [G54A C63G]	0.816

Variant	self-cleavage
GGCCGGCAUGGUCCCAGCCUCCUCGCUGGCGCCGGCUCGGCAACAUUCCGAGGGGACCGUCCCCUCGGUAAUUGCGAAUGGGACCCA [G38C G73U]	0.13
GGCCGGCAUGGUCCCAGCCUCCUCGCUGGCGCCGGUUGGGCAACAUUCCGAGGGGACCGUCCCCUCGGUAAUGGGGAAUGGGACCCA [C36U C75G]	0.0959
GGCCGGCAUGGUCCCAGCCUCCUCGCUGGCGCCGGCUGGGCAACAUUCCGAGGGGACAGUCCCCUCGGUAAUGGCGAAUCGGACCCA [C58A G80C]	0.0707
GUCCGGCAGGGUCCCAGCCUCCUCGCUGGCGCCGGCUGGGCAACAUUCCGAGGGGACCGUCCCCUCGGUAAUGGCGAAUGGGACCCA [G2U U9G]	0.101
AGCCGGCAUGGUCCCAGCCUCCUCUCUGGCGCCGGCUGGGCAACAUUCCGAGGGGACCGUCCCCUCGGUAAUGGCGAAUGGGACCCA [G1A G25U]	0.0462
GGCCGGCAUGGUCCCAGCCUCCUCGCGGGCGCCGGCUGGGCAACAUUCCGAGGGGACCGUCCCCUCGGUAAUGGCGCAUGGGACCCA [U27G A77C]	0.277
GGCCGGCAUGGUCCCAGCCUCCUCGCACGCGCCGGCUGGGCAACAUUCCGAGGGGACCGUCCCCUCGGUAAUGGCGAAUGGGACCCA [U27A G28C]	0
GGCCGGCAUGGUCCCAGCCUACUCGCUGGCGCCGGCUGGGCAACAUUCCGAGGGGACCGUCCCCUCGGUAAUGGCGAAUGGGACCAA [C21A C86A]	0.0563
GGCCGGCAUGGUCACAGCCUCCUCGCUGGCGCCGGCUGGGCAACAUUCCGAGGGGACCGUCCCCUCGGUGAUGGCGAAUGGGACCCA [C14A A70G]	0.665
GGCCGGCAUGGUCCCAGCCUCCUCGCUGGCGCCGGCUGGGAAACAUUCCGAGGGGACCGUCCCCUCGGUAAUGGCGAACGGGACCCA [C41A U79C]	0.237
GGCCGGCAUGGUCCCAGCCUCCUCGCUGACGCCGGCUGGGCAACAUUCCGAGGGGACCGUCCGCUCGGUAAUGGCGAAUGGGACCCA [G29A C63G]	0.128
GCCCGGCAUGGUCCCAGCCUCCUCACUGGCGCCGGCUGGGCAACAUUCCGAGGGGACCGUCCCCUCGGUAAUGGCGAAUGGGACCCA [G2C G25A]	0.0528
GGCCGGCAUGGUCCCGGCCUCCUCGCUGGCGCCGGCUGGGCAACAUUCCGAGUGGACCGUCCCCUCGGUAAUGGCGAAUGGGACCCA [A16G G53U]	1.02
GGCCGGCAUGGUCCCAGCAUCCUCGCUGGCGCCGGCUGGGUAACAUUCCGAGGGGACCGUCCCCUCGGUAAUGGCGAAUGGGACCCA [C19A C41U]	0.0382
GGCCGGCAUGGUCCCAGCCUCCUCGCUGGCGCCGGCUGGGGAACAUUCCGAGGGUACCGUCCCCUCGGUAAUGGCGAAUGGGACCCA [C41G G55U]	0.86
GGCCGGCAGGGUCCCAGCCUCCUCGCUGGCGCCGGCUGGGCAACAUUCCGAGGGGACCGUCCCCUCGGUAAUGGCGACUGGGACCCA [U9G A78C]	0.208

— the RNAGym collection of RNA variant scans (doi:10.7554/elife.80360)
